According to patent publication US11814435B2, “Therapeutic antibodies and their uses” (PFIZER INC., priority 2015, dated 2023):

T1: hBCMA (human BCMA) (Homo sapiens, UniProt Q02223)
T1 sequence (Q02223 1-184): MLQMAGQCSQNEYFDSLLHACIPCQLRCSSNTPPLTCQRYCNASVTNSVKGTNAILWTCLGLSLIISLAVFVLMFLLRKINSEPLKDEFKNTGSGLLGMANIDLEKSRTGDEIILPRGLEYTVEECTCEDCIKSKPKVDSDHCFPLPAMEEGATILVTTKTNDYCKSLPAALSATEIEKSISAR


What was measured:
hBCMA (human BCMA) = target: T1, hBCMA (human BCMA); experiment: Kinetics and affinity of hBCMA/human IgG interactions by SPR (Bio-Rad Proteon XPR36); assay type: binding; details: 37° C.; for ka Human / kd Human / Kd: human BCMA
Method in brief: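 Kinetic constants and affinity come from fitting double-referenced sensorgrams to a 1:1 Langmuir model with mass transport. Antigen flowed over amine-immobilized IgGs in five rising injections up to 50 nM, two minutes apiece, then a 2 h dissociation; runs at 37° C. or 25° C.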

cyBCMA = experiment: Kinetics and affinity of cyBCMA/human IgG interactions by SPR (Bio-Rad Proteon XPR36); assay type: binding, cynomolgus; details: 37° C.
Cyno BCMA = experiment: Kinetics and affinity of cyno BCMA/human IgG interactions by SPR (Bio-Rad Proteon XPR36); assay type: binding, cynomolgus; details: 37° C.

ka (1/Ms) huBCMA @ 37° C. (hBCMA (human BCMA)) [M⁻¹ s⁻¹] | kd (1/s) huBCMA @37° C. (hBCMA (human BCMA)) [s⁻¹] | kd (1/s) cyBCMA @37° C. (cyBCMA) [s⁻¹] | ka Human (hBCMA (human BCMA)) [M⁻¹ s⁻¹] | kd Human (hBCMA (human BCMA)) [s⁻¹] | kd Cyno (Cyno BCMA) [s⁻¹] | Kd (hBCMA (human BCMA)) [nM] | Kd (Cyno BCMA) [nM] | Molecule | ka (1/Ms) cyBCMA @ 37° C. (cyBCMA) [M⁻¹ s⁻¹] | ka Cyno (Cyno BCMA) [M⁻¹ s⁻¹]
2.75e+06 | 0.00191 | 0.00413 |  |  |  |  |  | L3.PY/L3.KF/H2.LT: anti-BCMA antibody (antibody, V domains shown) VH: EVQLLESGGGLVQPGGSLRLSCAASGFTFGSYAMTWVRQAPGKGLEWVSAISLTGGNTFYADSVKGRFTISRDNSKNTLYLQMNSLRAEDTAVYYCARVSPIASGMDYWGQGTLVTVSS VL: EIVLTQSPGTLSLSPGERATLSCRASQSVSSSYLAWYQQKPGQAPRLLIYGASSRATGIPDRFSGSGSGTDFTLTISRLEPEDFAVYYCKFYPYPPSFTFGQGTKVEIK | 1.91e+06 | 
2.07e+06 | 0.00125 | 0.0031 |  |  |  |  |  | L3.PY/L3.KF/H2.QL: anti-BCMA antibody (antibody, V domains shown) VH: EVQLLESGGGLVQPGGSLRLSCAASGFTFGSYAMTWVRQAPGKGLEWVSAISGSGGNTFYADQLKGRFTISRDNSKNTLYLQMNSLRAEDTAVYYCARVSPIASGMDYWGQGTLVTVSS VL: EIVLTQSPGTLSLSPGERATLSCRASQSVSSSYLAWYQQKPGQAPRLLIYGASSRATGIPDRFSGSGSGTDFTLTISRLEPEDFAVYYCKFYPYPPSFTFGQGTKVEIK | 1.42e+06 | 
 |  |  | 4.26e+06 | 0.000139 | 0.000448 |  |  | A02_Rd4_6 nM_C26: anti-BCMA antibody (antibody, V domains shown) VH: EVQLLESGGGLVQPGGSLRLSCAASGFTFSSYAMNWVRQAPGKGLEWVSAISDSGGSTYYADSVKGRFTISRDNSKNTLYLQMNSLRAEDTAVYYCARYWPMSLWGQGTLVTVSS VL: EIVLTQSPGTLSLSPGERATLSCRASQSVSSLYLAWYQQKPGQAPRLLMYDASIRATGIPDRFSGSGSGTDFTLTISRLEPEDFAVYYCQQYQVWPLTFGQGTKVEIK |  | 2.21e+06
 |  |  | 1.22e+07 | 0.000255 | 0.000414 |  |  | A02_Rd4_6 nM_C23: anti-BCMA antibody (antibody, V domains shown) VH: EVQLLESGGGLVQPGGSLRLSCAASGFTFSSYAMNWVRQAPGKGLEWVSAISDSGGSGWYADSVKGRFTISRDNSKNTLYLQMNSLRAEDTAVYYCARYWPMSLWGQGTLVTVSS VL: EIVLTQSPGTLSLSPGERATLSCRASQSVSVEYLAWYQQKPGQAPRLLMYDASIRATGIPDRFSGSGSGTDFTLTISRLEPEDFAVYYCQQYARWPLTFGQGTKVEIK |  | 2.63e+06
 |  |  | 2.75e+06 | 0.00018 | 0.00033 |  |  | A02_Rd4_6 nM_C25: anti-BCMA antibody (antibody, V domains shown) VH: EVQLLESGGGLVQPGGSLRLSCAASGFTFSSYAMNWVRQAPGKGLEWVSAISDSGGSRWYADSVKGRFTISRDNSKNTLYLQMNSLRAEDTAVYYCARYWPMTPWGQGTLVTVSS VL: EIVLTQSPGTLSLSPGERATLSCRASQSVSSSYLAWYQQKPGQAPRLLMYDASIRATGIPDRFSGSGSGTDFTLTISRLEPEDFAVYYCQQYLDWPLTFGQGTKVEIK |  | 1.5e+06

Second part, the molecule before the results:

Molecule | ka (1/Ms) huBCMA @ 37° C. (hBCMA (human BCMA)) [M⁻¹ s⁻¹] | kd (1/s) huBCMA @37° C. (hBCMA (human BCMA)) [s⁻¹] | kd (1/s) cyBCMA @37° C. (cyBCMA) [s⁻¹] | ka Human (hBCMA (human BCMA)) [M⁻¹ s⁻¹] | kd Human (hBCMA (human BCMA)) [s⁻¹] | kd Cyno (Cyno BCMA) [s⁻¹] | Kd (hBCMA (human BCMA)) [nM] | Kd (Cyno BCMA) [nM] | ka (1/Ms) cyBCMA @ 37° C. (cyBCMA) [M⁻¹ s⁻¹] | ka Cyno (Cyno BCMA) [M⁻¹ s⁻¹]
A02_Rd4_6 nM_C22: anti-BCMA antibody (antibody, V domains shown) VH: EVQLLESGGGLVQPGGSLRLSCAASGFTFSSYAMNWVRQAPGKGLEWVSAVLDSGGSTYYADSVKGRFTISRDNSKNTLYLQMNSLRAEDTAVYYCARYWPMTPWGQGTLVTVSS VL: EIVLTQSPGTLSLSPGERATLSCRASQSVSSSYLAWYQQKPGQAPRLLMYDASIRATGIPDRFSGSGSGTDFTLTISRLEPEDFAVYYCQQYQVWPLTFGQGTKVEIK |  |  |  | 3.38e+06 | 0.000182 | 0.000324 |  |  |  | 1.84e+06
A02_Rd4_6 nM_C19: anti-BCMA antibody (antibody, V domains shown) VH: EVQLLESGGGLVQPGGSLRLSCAASGFTFSSYAMNWVRQAPGKGLEWVSAISDSGGSRWYADSVKGRFTISRDNSKNTLYLQMNSLRAEDTAVYYCARYWPMSDWGQGTLVTVSS VL: EIVLTQSPGTLSLSPGERATLSCRASQSVSVLYLAWYQQKPGQAPRLLMYDASIRATGIPDRFSGSGSGTDFTLTISRLEPEDFAVYYCQQYLAWPLTFGQGTKVEIK |  |  |  | 3e+06 | 0.000148 | 0.000661 | 0.049 | 0.26 |  | 2.54e+06
A02_Rd4_6 nM_C10: anti-BCMA antibody (antibody, V domains shown) VH: EVQLLESGGGLVQPGGSLRLSCAASGFTFSSYAMNWVRQAPGKGLEWVSAISDSGGSCWYADSVKGRFTISRDNSKNTLYLQMNSLRAEDTAVYYCARYWPMTPWGQGTLVTVSS VL: EIVLTQSPGTLSLSPGERATLSCRASQSVEMSYLAWYQQKPGQAPRLLMYDASIRATGIPDRFSGSGSGTDFTLTISRLEPEDFAVYYCQQYAHWPLTFGQGTKVEIK |  |  |  | 4.51e+06 | 0.000315 | 0.000898 |  |  |  | 1.9e+06
A02_Rd4_0.6 nM_C03: anti-BCMA antibody (antibody, V domains shown) VH: EVQLLESGGGLVQPGGSLRLSCAASGFTFSSYAMNWVRQAPGKGLEWVSAISDSGGSKWYADSVKGRFTISRDNSKNTLYLQMNSLRAEDTAVYYCARYWPMSLWGQGTLVTVSS VL: EIVLTQSPGTLSLSPGERATLSCRASQSVSSSYLAWYQQKPGQAPRLLMYDASIRATGIPDRFSGSGSGTDFTLTISRLEPEDFAVYYCQQYFTWPLTFGQGTKVEIK |  |  |  | 4.27e+06 | 0.000182 | 0.000426 |  |  |  | 2.12e+06
A02_Rd4_6 nM_C07: anti-BCMA antibody (antibody, V domains shown) VH: EVQLLESGGGLVQPGGSLRLSCAASGFTFSSYAMNWVRQAPGKGLEWVSAIGGSGGSLPYADSVKGRFTISRDNSKNTLYLQMNSLRAEDTAVYYCARYWPMDSWGQGTLVTVSS VL: EIVLTQSPGTLSLSPGERATLSCRASQSVSPYYLAWYQQKPGQAPRLLMYDASIRATGIPDRFSGSGSGTDFTLTISRLEPEDFAVYYCQQYERWPLTFGQGTKVEIK |  |  |  | 1.48e+06 | 0.000189 | 0.000786 |  |  |  | 691000
A02_Rd4_0.6 nM_C18: anti-BCMA antibody (antibody, V domains shown) VH: EVQLLESGGGLVQPGGSLRLSCAASGFTFSSYAMNWVRQAPGKGLEWVSAVLDSGGSTYYADSVKGRFTISRDNSKNTLYLQMNSLRAEDTAVYYCARYWPMSLWGQGTLVTVSS VL: EIVLTQSPGTLSLSPGERATLSCRASQSVSELYLAWYQQKPGQAPRLLMYDASIRATGIPDRFSGSGSGTDFTLTISRLEPEDFAVYYCQQYFGWPLTFGQGTKVEIK |  |  |  | 4.73e+06 | 0.000229 | 0.000639 | 0.048 | 0.197 |  | 3.24e+06
